{"source": "patent US20210371526A1", "about": "(AMPSOURCE BIOPHARMA SHANGHAI, published 2021)", "key": {"[1]": {"biological_target": "T1, CD3 on cynomolgus monkey T cells (CIK cells, primary T cells) (cynomolgus monkey, UniProt Q95LI5 22-198)", "T1 construct": "whole, on cells; also called cynomolgus monkey CIK cell membrane CD3", "T1 sequence (Q95LI5 22-198)": "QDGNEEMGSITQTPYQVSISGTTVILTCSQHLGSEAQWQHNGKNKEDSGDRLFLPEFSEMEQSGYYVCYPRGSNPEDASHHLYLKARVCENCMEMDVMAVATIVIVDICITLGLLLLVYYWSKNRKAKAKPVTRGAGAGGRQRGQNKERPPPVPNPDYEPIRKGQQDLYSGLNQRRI", "test": "flow cytometry on cynomolgus monkey primary T cells"}, "CD20 on Raji cells [2]": {"biological_target": "T2, CD20 on Raji cells (human, UniProt P11836 1-297)", "T2 sequence (looked up)": "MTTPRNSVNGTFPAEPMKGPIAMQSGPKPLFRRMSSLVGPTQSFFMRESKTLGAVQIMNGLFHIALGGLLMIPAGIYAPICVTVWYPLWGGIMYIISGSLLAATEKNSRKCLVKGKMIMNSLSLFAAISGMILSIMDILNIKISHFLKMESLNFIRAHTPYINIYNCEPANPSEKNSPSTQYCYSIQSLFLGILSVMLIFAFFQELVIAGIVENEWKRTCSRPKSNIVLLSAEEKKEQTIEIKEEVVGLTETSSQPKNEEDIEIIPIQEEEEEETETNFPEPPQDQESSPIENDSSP", "test": "cell-based or functional assay"}, "CD20 on Raji cells [3]": {"biological_target": "T2, CD20 on Raji cells", "test": "flow cytometry on CD20-positive Raji cells"}, "[4]": {"biological_target": "T3, CD19 on tumor cells (Raji, Raji-Luc, NALM6, Reh) (human, UniProt P15391 20-556)", "T3 sequence (looked up)": "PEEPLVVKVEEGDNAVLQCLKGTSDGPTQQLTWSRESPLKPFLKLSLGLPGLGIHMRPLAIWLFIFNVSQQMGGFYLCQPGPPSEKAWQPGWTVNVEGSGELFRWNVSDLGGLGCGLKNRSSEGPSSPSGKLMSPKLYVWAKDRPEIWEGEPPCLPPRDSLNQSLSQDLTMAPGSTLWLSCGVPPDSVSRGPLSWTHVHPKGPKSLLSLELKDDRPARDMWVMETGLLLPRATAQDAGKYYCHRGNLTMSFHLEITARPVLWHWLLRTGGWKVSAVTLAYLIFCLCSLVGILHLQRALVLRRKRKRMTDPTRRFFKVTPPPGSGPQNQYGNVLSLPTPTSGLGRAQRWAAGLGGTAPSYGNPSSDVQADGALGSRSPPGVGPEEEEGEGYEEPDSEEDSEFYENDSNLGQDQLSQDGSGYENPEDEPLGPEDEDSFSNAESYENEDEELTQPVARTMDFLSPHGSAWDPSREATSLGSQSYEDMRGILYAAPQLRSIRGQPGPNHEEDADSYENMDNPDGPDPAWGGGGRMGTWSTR", "test": "cell-based or functional assay"}, "[5]": {"biological_target": "T3, CD19 on tumor cells (Raji, Raji-Luc, …)", "test": "cell-based or functional assay", "remark": "listed apart in the source"}, "[6]": {"biological_target": "T3, CD19 on tumor cells (Raji, Raji-Luc, …)", "test": "cell-based or functional assay", "remark": "listed apart in the source"}, "[7]": {"biological_target": "T3, CD19 on tumor cells (Raji, Raji-Luc, …)", "test": "cell-based or functional assay", "remark": "listed apart in the source"}, "[8]": {"biological_target": "T3, CD19 on tumor cells (Raji, Raji-Luc, …)", "test": "flow cytometry on CD19-positive Raji cells"}, "[9]": {"biological_target": "T1, CD3 on cynomolgus monkey T cells (CIK …)", "test": "flow cytometry on cynomolgus monkey CIK/T cells"}, "[10]": {"biological_target": "T3, CD19 on tumor cells (Raji, Raji-Luc, …)", "test": "FACS on CD19-positive Raji cells, AF647 goat anti-human IgG [left panel]"}}}
{"binder": "Bispecific antibody AB11K (Anti-Mucin1×CD3, scFv1-scFv2-Fc) (bispecific antibody) EVQLVESGGGLVQPGGSMRLSCVASGFPFSNYWMNWVRQAPGKGLEWVGEIRLKSNNYTTHYAESVKGRFTISRDDSKNSLYLQMNSLKTEDTAVYYCTRHYYFDYWGQGTLVTVSSGGGGSGGGGSGGGGSDIVMTQSPLSNPVTPGEPASISCRSSKSLLHSNGITYFFWYLQKPGQSPQLLIYQMSNLASGVPDRFSGSGSGTDFTLRISRVEAEDVGVYYCAQNLELPPTFGQGTKVEIKGGGGGGSGGGGSGGGGSSSSSKAPPPSEVQLLESGGGLVQPGGSLKLSCAASGFTFNTYAMNWVRQAPGKGLEWVARIRSKYNNYATYYADSVKDRFTISRDDSKNTAYLQMNNLKTEDTAVYYCVRHGNFGNSYVSWFAYWGQGTLVTVSSGGGGSGGGGSGGGGSELVVTQEPSLTVSPGGTVTLTCRSSTGAVTTSNYANWVQQKPGQAPRGLIGGTNKRAPGTPARFSGSLLGGKAALTLSGVQPEDEAEYYCALWYSNLWVFGGGTKLTVLDKTHTCPPCPAPEAAGGPSVFLFPPKPKDQLMISRTPEVTCVVVDVSHEDPEVKFNWYVDGVEVHNAKTKPREEQYASTYRVVSVLTVLHQDWLNGKEYKCKVSNKALPASIEKTISKAKGQPREPQVYTLPPSRDELTKNQVSLTCLVKGFYPSDIAVEWESNGQPENNYKTTPPVLDSDGSFFLYSKLTVDKSRWQQGNVFSCSVLHEALHNHYTQKSLSLSPG", "values": [{"measurement": "EC50", "setting": "[1]", "value": 10, "unit": "nM"}]}
{"binder": "Bispecific antibody AB2K (Anti-CD20×CD3, scFv1-scFv2-Fc) (bispecific antibody) QVQLQQPGAELVKPGASVKMSCKASGYTFTSYNMHWVKQTPGRGLEWIGAIYPGNGDTSYNQKFKGKATLTADKSSSTAYMQLSSLTSEDSAVYYCARSTYYGGDWYFNVWGAGTTVTVSAGGGGSGGGGSGGGGSQIVLSQSPAILSASPGEKVTMTCRASSSVSYIHWFQQKPGSSPKPWIYATSNLASGVPVRFSGSGSGTSYSLTISRVEAEDAATYYCQQWTSNPPTFGGGTKLEIKGGGGGGSGGGGSGGGGSSSSSKAPPPSEVQLLESGGGLVQPGGSLKLSCAASGFTFNTYAMNWVRQAPGKGLEWVARIRSKYNNYATYYADSVKDRFTISRDDSKNTAYLQMNNLKTEDTAVYYCVRHGNFGNSYVSWFAYWGQGTLVTVSSGGGGSGGGGSGGGGSELVVTQEPSLTVSPGGTVTLTCRSSTGAVTTSNYANWVQQKPGQAPRGLIGGTNKRAPGTPARFSGSLLGGKAALTLSGVQPEDEAEYYCALWYSNLWVFGGGTKLTVLDKTHTCPPCPAPEAAGGPSVFLFPPKPKDQLMISRTPEVTCVVVDVSHEDPEVKFNWYVDGVEVHNAKTKPREEQYASTYRVVSVLTVLHQDWLNGKEYKCKVSNKALPASIEKTISKAKGQPREPQVYTLPPSRDELTKNQVSLTCLVKGFYPSDIAVEWESNGQPENNYKTTPPVLDSDGSFFLYSKLTVDKSRWQQGNVFSCSVLHEALHNHYTQKSLSLSPG", "values": [{"measurement": "EC50 of CIK-mediated killing of Raji-luc cells (luciferase)", "setting": "CD20 on Raji cells [2]", "value": 0.0428, "unit": "mg/L"}, {"measurement": "EC50 of activation of Jurkat NFATRE Luc reporter cells in the presence of CD20-positive Raji cells", "setting": "CD20 on Raji cells [2]", "value": 0.201, "unit": "mg/L"}, {"measurement": "EC50", "setting": "CD20 on Raji cells [3]", "value": "~70", "unit": "nM"}]}
{"binder": "Bispecific antibody AB1K2 (Anti-CD19×CD3, scFv1-scFv2-Fc) (bispecific antibody) QVQLQESGPGLVKPSQTLSLTCTVSGGSISTSGMGVGWIRQHPGKGLEWIGHIWWDDDKRYNPALKSRVTISVDTSKNQFSLKLSSVTAADTAVYYCARMELWSYYFDYWGQGTLVTVSSGGGGSGGGGSGGGGSEIVLTQSPATLSLSPGERATLSCSASSSVSYMHWYQQKPGQAPRLLIYDTSKLASGIPARFSGSGSGTDFTLTISSLEPEDVAVYYCFQGSVYPFTFGQGTKLEIKGGGGGGSGGGGSGGGGSSSSSKAPPPSEVQLLESGGGLVQPGGSLKLSCAASGFTFNTYAMNWVRQAPGKGLEWVARIRSKYNNYATYYADSVKDRFTISRDDSKNTAYLQMNNLKTEDTAVYYCVRHGNFGNSYVSWFAYWGQGTLVTVSSGGGGSGGGGSGGGGSELVVTQEPSLTVSPGGTVTLTCRSSTGAVTTSNYANWVQQKPGQAPRGLIGGTNKRAPGTPARFSGSLLGGKAALTLSGVQPEDEAEYYCALWYSNLWVFGGGTKLTVLDKTHTCPPCPAPEAAGGPSVFLFPPKPKDQLMISRTPEVTCVVVDVSHEDPEVKFNWYVDGVEVHNAKTKPREEQYASTYRVVSVLTVLHQDWLNGKEYKCKVSNKALPASIEKTISKAKGQPREPQVYTLPPSRDELTKNQVSLTCLVKGFYPSDIAVEWESNGQPENNYKTTPPVLDSDGSFFLYSKLTVDKSRWQQGNVFSCSVLHEALHNHYTQKSLSLSPG", "values": [{"measurement": "EC50 of activation of Jurkat T cells with NFAT RE reporter in the presence of Raji target cells", "setting": "[4]", "value": 1.08, "unit": "nM"}, {"measurement": "EC50 of CIK-mediated killing of Raji-LUC cells", "setting": "[5]", "value": 0.000699, "unit": "nM"}, {"measurement": "EC50 of CIK-mediated killing of Raji-LUC cells, second row", "setting": "[5]", "value": 0.000202, "unit": "nM"}, {"measurement": "EC50 of PBMC-mediated killing of Raji-LUC cells", "setting": "[6]", "value": 0.00123, "unit": "nM"}, {"measurement": "EC50 of PBMC-mediated killing of Raji-LUC cells, second row", "setting": "[6]", "value": 0.00125, "unit": "nM"}, {"measurement": "EC50 of CIK-mediated killing of Reh cells", "setting": "[7]", "value": 0.00171, "unit": "nM"}, {"measurement": "EC50", "setting": "[8]", "value": 1.39, "unit": "nM"}, {"measurement": "EC50", "setting": "[9]", "value": "~5.5", "unit": "nM"}, {"measurement": "EC50 (read off the curve)", "setting": "[10]", "value": "~1", "unit": "nM"}]}
